Reference: the DeepSol protein solubility set

Assay: soluble on expression in E. coli; label from the status in PepcDB or PDB records

Sequence | soluble on expression in E. coli
MGHHHHHHSHCPQESVYCENKCGARMMRRLLAQHATSECPKRTQPCTYCTKEFVFDTIQSHQYQCPRLPVACPNQCGVGTVAREDLPGHLKDSCNTALVLCPFKDSGCKHRCPKLAMARHVEESVKP | not soluble
NTYAPIETLKRLYSEAFRLPDVVGISIGTRIDSVNHEILDFLGEYAREKEVWIEYGIQSIHDRTLEGINRGHDSSEMEYWIKETQNRGIKVCVHLIYGLPGESEEMMLETLDKMIEWQAESIKIHPLYVMAHTALATLYKKGEYTPITLERYAWLIGESMKRIPK | not soluble
SLTQSLLMYMDGPEVIGSSLGSPMEMEDALSMKGTAVVPFRATQEKNVIQIEGYMPLDCMFCSQTFTHSEDLNKHVLMQHRPTLCEPAVLRVEAEYLSPLDKSQVRTEPPKEKNCKENEFSCEVCGQTFRVAFDVEIHMRTHKDSFTYGCNMCGRRFKEPWFLKNHMRTHNGKSGARSKLQQGLESSPATINEVVQVHAAESISSPYKICMVCGFLFPNKESLIEHRKVHTKKTAFGTSSAQTDSPQGGMPSSREDFLQLFNLRPKSHPETGKKPVRCIPQLDPFTTFQAWQLATKGKVAICQEVKESGQEGSTDNDDSSSEKELGETNKGSCAGLSQEKEKCKHSHGEAPSVDADPKLPSSKEKPTHCSECGKAFRTYHQLVLHSRVHKKDRRAGAESPTMSVDGRQPGTCSPDLAAPLDENGAVDRGEGGSEDGSEDGLPEGIHLDKNDDGGKIKHLTSSRECSYCGKFFRSNYYLNIHLRTHTGEKPYKCEFCEYAAAQKTSLRYHLERHHKEKQTDVAAEVKNDGKNQDTEDALLTADSAQTKNLKRFFDGAKDVTGSPPAKQLKEMPSVFQNVLGSAVLSPAHKDTQDFHKNAADDSADKVNKNPTPAYLDLLKKRSAVETQANNLICRTKADVTPPPDGSTTHNLEVSPKEKQTETAADCRYRPSVDCHEKPLNLSVGALHNCPAISLSKSLIPSITCPFCTFKTFYPEVLMMHQRLEHKYNPDVHKNCRNKSLLRSRRTGCPPALLGKDVPPLSSFCKPKPKSAFPAQSKSLPSAKGKQSPPGPG | not soluble
MGSDKIHHHHHHCSEELDSQPMESYPEGGEPLDVVCKEYGISDYEDIELLSYYKNNLEQANFSGLREEKLWLASFNVKDKSPIINWTDELPFNRNRKIYKGYGEYEDVTIQQITMLQTMYFNPKEFVASLSYYFGKDYGYLALLFRHDTQTKEVQVKRSEILAGFQYSIINNDCCYSLSGDTLYIAEKGFGYSNVGTLYTSEFISHEEAIYTHRDNKGFFVGRRNFKLGEDLWHIQVPQLNDEPADAKIEVSVEDNSKRVWKYNVNIIHYDGTKKNVTFEVDIDNGTIKGENDYTSLIIGKWKKTSGDAVATHVTYKNDGTFEYTSTEDSSYKEVGKYKIDGNKLYEMYSDEEEWIINDILLLNSMTLSVQELEADGVTPTGQKYSYQRVE | not soluble
MKKVIIAGNGPSLKEIDYSRLPNDFDVFRCNQFYFEDKYYLGKKCKAVFYNPSLFFEQYYTLKHLIQNQEYETELIMCSNYNQAHLENENFVKTFYDYFPDAHLGYDFFKQLKDFNAYFKFHEIQFNQRITSGVYMCAVAIALGYKEIYLSGIDFYQNGSSYAFDTKQKNLLKLAPNFKNDNSHYIGHSKNTDIKALEFLEKTYKIKLYCLCPNSLLANFIGLAPNLNSNFIIQEKNNYTKDILIPSSEAYGKFSKNINFKKIKIKENIYYKLIKDLLRLPSDIKHYFKGK | soluble
MITDLILHNHPRMKTITLNDNHIAHLNAKNTTKLEYLNLSNNNLLPTNDIDQLISSKHLWHVLVNGINNDPLAQMQYWTAVRNIIDDTNEVTIDLSGLNLTTQPPGLQNFTSINLDNNQFTHFDATNYDRLVKLSLNSNALESINFPQGRNVSITHISMNNNALRNIDIDRLSSVTYFSAAHNQLEFVQLESCEWLQYLNLSHNQLTDIVAGNKNELLLLDLSHNKLTSLHNDLFPNLNTLLINNNLLSEIKIFYSNFCNVQTLNAANNQLKYINLDFLTYLPSIKSLRLDNNKITHIDTNNTSDIGTLFPIIKQSKTLEHHHHHH | not soluble
MLKEFKMIEAVAPDMLDVLQERFQILRNIYWMQPIGRRSLSETMGITERVLRTETDVLKQLNLIEPSKSGMTLTERGLEVYQGLELVMNQLLGMHQIEKEMTQYFGIQRCIVVAGDSDIQKKVLSDFGDVLTNTLNLLLPNGENTIAVMGGTTMAMVAENMGSLETEKRHNLFVPARGGIGEAVSVQANSISAVMANKTGGNYRALYVPEQLSRETYNSLLQEPSIQEVLTLISHANCVVHSIGRALHMAARRKMSDDEMVMLKQKNAVAESFGYFFDEEGKVVYKIPRIGLQLKNLQEIPYVVAIAGGKTKAKAIRAYMKNAPKQTWLITDEAAANEILKGVTL | soluble
MNNQNNNFVDFSEDDDMMDADFLGVVIPDDLMNASLEFQRTEPFSFIPAEEDLAPMEILPNNQGDVEMTAVDKNPDKVLFELRVETQIEPTLNYINAENEAVEWDIKSYYDFDNPQRPAQADEAATYQENGYGFVDFQPFAQQQQPAYNGNEPEFLIQRMQITDETYANAHFHQNEYAIEEKPSLFSPSSTPSYCCTSGPISPAYTPIGNNANACAPTRSRRTSTASNKSGGKIGKVAKLGEKSSGEKRTRMTKAEMSRLTEKEKLERKKEQNRANAKNCVKNRNNSKEELKQTLEMLREKVQEAKRQNEMQENGLLAAYETNIFAVQGNNFPYGSLELFYDQLQGSKAEAVEQVQYDNNGEVVQLEEAFNKTEQDYGQYTSVKKIAGLPQNTFASKKSRAKTAFEIADHQLNLKKEEVELREANAIKVVLNQITRELNRYMDGAKLAEQQAFDENFQQFEPS | not soluble
MHPFYTRAATMIGEIAAAVSFISKFLRTKGLTSERQLQTFSQSLQELLAEHYKHHWFPEKPCKGSGYRCIRINHKMDPLIGQAAQRIGLSSQELFRLLPSELTLWVDPYEVSYRIGEDGSICVLYEASPAGGSTQNSTNVQMVDSRISCKEELLLGRTSPSKNYNMMTVSG | soluble
MDGRPLNRTTRAVAMIAVTIPAHNEQALIGPCLQSIRVAAQHPALQGEAVEIHVALDRCTDQTGVIARAHGAITQEVCGGVGVARAAAASAAIARGAHWLACTDADTRVPPDWLMAQLACAADAFCGVVEVTDWRDHLSQTRAAFLASEIRHDGHPHVHGANLGMRTSAYLAAGGFSNASSSEDVALVAALEQAGMRIARLASPVVNTSARRSARASGGFADYLLRLEAALLAASPSLGLEHHHHHH | not soluble
MGSDKIHHHHHHMKLLDHKLSLLEITDEEKSDEIILNLSRNVKKDLEDIVVANVSMENVLVMNIKVPPTLNKQNAVEYATMEISRNLGILPEQLVVAPLDIRGGEGLFFVSKVDQVKSFVTDLMKKEFPETDVVIPDIVKYLEVFEFYFGKRLKGTSVLTVISFLSDYYSIVVLENNHYRSLRLLFSMFWDYMDIVVENTGIQPKELIEGTVNVDLSFLQPYFGDFLIELDREVKVSLDEVNLSRVNQFFYIVDPPIFSPVLSQSLEKFEGVALKQGIVPSFKPGISLGTLGLMIRGGREIGKVKHLSV | not soluble
MSLLQTKDYEFWFVTGSQHLYGEETLELVDQHAKSICEGLSGISSRYKITHKPVVTSPETIRELLREAEYSETCAGIITWMHTFSPAKMWIEGLSSYQKPLMHLHTQYNRDIPWGTIDMDFMNSNQSAHGDREYGYINSRMGLSRKVIAGYWDDEEVKKEMSQWMDTAAALNESRHIKVARFGDNMRHVAVTDGDKVGAHIQFGWQVDGYGIGDLVEVMDRITDDEVDTLYAEYDRLYVISEETKRDEAKVASIKEQAKIELGLTAFLEQGGYTAFTTSFEVLHGMKQLPGLAVQRLMEKGYGFAGEGDWKTAALVRMMKIMAKGKRTSFMEDYTYHFEPGNEMILGSHMLEVCPTVALDQPKIEVHSLSIGGKEDPARLVFNGISGSAIQASIVDIGGRFRLVLNEVNGQEIEKDMPNLPVARVLWKPEPSLKTAAEAWILAGGAHHTCLSYELTAEQMLDWAEMAGIESVLISRDTTIHKLKHELKWNEALYRLQKEGHHHHHH | soluble
NLYFQGHMVLKLLLELGAERYAEQFAAKCHELGMVMKESAGPGRVPVPVTLQPSMISRGEFGTLCCMQPLWNEAVDNTARNFTFLRDALQETAASDVNFTGKLLNMLQEVYLSGGPFQQLMLGIFRTDYMREGVYDKMLSTTASRWKNVEINTISCSFAGLSPLITEFHQHIAAYLQVLQKARGKEDDDGVENMSWIWGKGNCRLERSVSGDVVPKAIADAVRAWVEQQKFASLRASWEQFQQNEVGSGEIHQLGVLDTAPVVLVVVQENERNTADQYALLMRVLEEHRIRFIFRTLQELHLSLKLHSISPEQPPLAVVDGHYPIAVAYFRSTYVPEDFPTDATWAARLSLERSSAIKCPSIPYHLLTFKKLQQLLCDVDRVLVPVAFCGDSDKAGLLQRHFVPQYSLNPKEVGEEAVEKVIHDVLQRPDQFVLKPQLEGGGNLLSGETMVKALKATKEGDPVTYSKVRCEYVVMSRIQFHVSTGSLLARGDVVQLERNMCSEVGIFGVILSAAKGSSVGTNGSSVLFNTFAGYTVRSKPADADDGGVMAGVAALDSLAVVP | soluble
NEKETISYIINTSKNIVIFALSPDKTKASYRVAEFLQRKNYKIFPIYPKEEFILNEKVYRNLDQIEEKIDTLILFRKGEVALEILPKLVEKNIKNLWLQLDISNETAKEECKKLDINFIQNRCIMLEYPHFK | not soluble
MAHHHHHHMLQNMSNILDRTCWSCFFFFLKRKYSYMRRGTSTYPTTGCPLKKHEGGSHCPRARNWTASAGDIVGNGRRAEVGLARLKS | not soluble
MGHHHHHHSHNTTKPKSLAVKKAKWHLGIRSQSKPYDIMAEVYRAMKQLDFEWKVVNAYHLRVRRKNPVTGNYVKMSLQLYLVDNRSYLLDFKSIDDEVVEQRSGS | not soluble
MYTLSAGIWEKFFKKKDYYVVIVGLDNAGKTTFLEQTKSHFVKDYGVLNPSKITATVGLNTGNVELNNTCLHFWDLGGQESLRELWATYYDDANAMIFVVDATRSDLFPIVASQFKEVMANEIVQNIPVLVAVNKSEMEGAAAAAEVRMLLEDDNHRSDLAVLPVSALEGTNIERCVHWIVRSLASQPLYL | not soluble
MAVIYKTTAHASAGREGVVQTVDGFTVSLAFPKPGATHQDKNNPEQLFASAYAGCFSQAVRVVLQQHQLQLATQPIVGVSVELHDQDGLFHIKAGVELAITGVDQTTAQTVITAAHAMCPFSRLIKPENFLGLTLNGAKL | soluble
MDGNAPEPRYWEKMRLVAEVLKAVEGPIYIATHVDPDGDAIGSSLGLYRALKALGKEAYWVADPPRFLRFLPKEEEYSDPVEKLPPGATLVALDSAEPSRVVGVPVEGFVINIDHHGTNPRFGHLHVVDPSKAATAQMVKDLIDLLGVEWTAEIATPVLTGILTDTGNFRFANTTPEVLRVAAELLGYGVKLAELTDRLQFRPPSYFRLMGQVLSTVAFHFGGLLVTAHLPEDAGAEEDSDDFVGLIRYVEGSVVSVFLRKREEGVKVSIRSRGGVSAQNIALKLGGGGHVPAAGATLKGLDLDQAYERVLEAVREELTRAGYL | soluble
MLTYQVKQGDTLNSIAADFRISTAALLQANPSLQAGLTAGQSIVIPGLPDPYTIPYHIAVSIGAKTLTLSLNNRVMKTYPIAVGKILTQTPTGEFYIINRQRNPGGPFGAYWLSLSKQHYGIHGTNNPASIGKAVSKGCIRMHNKDVIELASIVPNGTRVTINR | soluble
EKELLDNFKKNITQYAKQLEISIEKVYDEKGSVNAQKDIQNLLSEYANRQEIGEIRFIDKDQIIIATTKQSNRSLINQKANDSSVQKALSLGQSNDHLILKDYGGGKDRVWVYNIPVKVDKKVIGNIYIESKINDVYNQLNNINQ | not soluble
